Results taken from patent publication US11607466B2, “Tumor and immune cell imaging based on PD-L1 expression” (The Johns Hopkins University, priority 2016, dated 2023).
Values joined by “and” are separate entries in the source; they are usually repeats but may differ in a detail not shown here. Equal values may be shown once.

Key:
PD-L1 in hPD-L1 cells = target: T1, PD-L1 in hPD-L1 cells (Homo sapiens, UniProt Q9NZQ7); test: In vitro binding of [64Cu]WL12 to hPD-L1 and CHO cells; format: cell-based; details: compared with WL12
T1 construct: expressed in transfected cells; grown as tumours in NSG mice for the in vivo units
T1 sequence (Q9NZQ7 19-290): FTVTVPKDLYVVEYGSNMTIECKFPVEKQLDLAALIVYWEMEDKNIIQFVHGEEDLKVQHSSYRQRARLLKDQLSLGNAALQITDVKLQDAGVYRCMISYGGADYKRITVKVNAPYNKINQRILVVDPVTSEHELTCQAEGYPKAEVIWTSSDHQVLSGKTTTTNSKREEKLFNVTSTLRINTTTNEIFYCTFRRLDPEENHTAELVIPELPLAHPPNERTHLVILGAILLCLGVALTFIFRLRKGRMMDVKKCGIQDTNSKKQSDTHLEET
Procedure: 1.4.9. […] After incubation, cells were washed three times with cold PBS prior to counting on an automated gamma counter (1282 Compugamma CS, Pharmacia/LKBNuclear, Inc., Gaithersburg, Md.). […] Mean fluorescence intensity values were correlated with % incubated dose (% ID) uptake. All the cell uptake studies were performed in triplicate for each cell line and repeated three times.

PD-L1 in H226 xenografts = target: T2, PD-L1 in H226 xenografts (Homo sapiens, UniProt Q9NZQ7); test: Tumor PD-L1 engagement by AtzMab measured with [64Cu]WL12, H226 xenografts; format: in vivo; details: AtzMab 20 mg/kg for 24 h, vs saline controls
T2 construct: Each of which naturally expresses PD-L1; endogenous in cells; host or cells: HCC827 and H226 NSCLC cells; as xenografts in NOD scid gamma mice for the in vivo units
T2 sequence (Q9NZQ7 19-290): as above
Text: (§1) 3.3.2 Quantifying Tumor PD-L1 engagement by AtzMab. To evaluate PD-L1 engagement by the therapeutic mAbs at the tumor non-invasively in vivo, NSCLC xenograft models were studied. Those models were selected because nearly 50% of NSCLCs are PD-L1-positive and PD-L1 IHC is used as a predictive biomarker in patients with NSCLC undergoing immune checkpoint therapy (Mansfield, et al., 2016). […] There is a clear reduction in the accumulation of radioactivity in tumors of AtzMab-treated mice, indicating reduced levels of available PD-L1 sites, compared to treated controls (FIG. 35A and FIG. 35B). […] PD-L1 expression levels were confirmed by PD-L1 IHC of the xenografts (FIG. 35C and FIG. 35F).

[1] = target: T3, PD-L1 in HCC827 xenografts (Homo sapiens, UniProt Q9NZQ7); test: Tumor PD-L1 engagement by AtzMab measured with [64Cu]WL12, HCC827 xenografts; format: in vivo; details: AtzMab 20 mg/kg for 24 h, vs saline controls
T3 construct: Each of which naturally expresses PD-L1; endogenous in cells; host or cells: HCC827 and H226 NSCLC cells; as xenografts in NOD scid gamma mice for the in vivo units
T3 sequence (Q9NZQ7 19-290): as above
Text: as §1

[2] = target: T4, PD-L1 in A549-iPDL1 cells (Homo sapiens, UniProt Q9NZQ7); test: Binding studies in doxycycline-inducible A549-iPDL1 cells; format: cell-based; details: 60 nM mAb
T4 construct: expressed in transfected cells; host or cells: A549 NSCLC cells, lentiviral pINDUCER20, G418-selected, doxycycline-induced
T4 sequence (Q9NZQ7 19-290): as above
Text: To do so, an A549 NSCLC cell line with doxycycline-inducible PD-L1 expression (A549-iPD-L1) was generated. A549 is a Kras G12S lung adenocarcinoma cell line that expresses low PD-L1 at baseline.

[3] = target: T5, PD-L1 in A549-iPDL1 tumors (Homo sapiens, UniProt Q9NZQ7); test: [64Cu]WL12 PET and biodistribution in A549-iPDL1 and A549 xenografts; format: in vivo; details: AtzMab 20 mg/kg
T5 construct: expressed in transfected cells; host or cells: A549 NSCLC cells, lentiviral pINDUCER20, G418-selected, doxycycline-induced; as xenografts for the in vivo unit
T5 sequence (Q9NZQ7 19-290): as above
Text: To do so, an A549 NSCLC cell line with doxycycline-inducible PD-L1 expression (A549-iPD-L1) was generated. A549 is a Kras G12S lung adenocarcinoma cell line that expresses low PD-L1 at baseline. It has been transduced with PD-L1 in the all-in-one lentivirus pINDUCER20 vector (Meerbrey, et al., 2011), selected with G418, confirmed for PD-L1 induction by flow cytometry (FIG. 37A) and used for in vitro and in vivo studies. Cy5-PD-L1-mAbs binding to doxycycline-treated A549-iPDL1 cells was blocked by WL12 validating the specificity of WL12 (FIG. 37B). […] Accordingly, it is expected that PET will play a key role in quantifying dynamic changes in PD-L1 expression within the standard clinical work flow, providing a novel way to inform therapy decisions.

PD-L1 in MDAMB231 tumors [4] = target: T6, PD-L1 in MDAMB231 tumors (Homo sapiens, UniProt Q9NZQ7); test: Tumor PD-L1 engagement by PD-L1 mAbs measured with [64Cu]WL12, MDAMB231 xenografts; format: in vivo
T6 construct: MDAMB231 breast cancer cells, which naturally express PD-L1; endogenous in cells; host or cells: MDAMB231 (ATCC); as xenografts in NSG mice for the in vivo units
T6 sequence (Q9NZQ7 19-290): as above
Procedure: To evaluate the effect of dose on tumor PD-L1 occupancy at the tumor, mice bearing MDAMB231 tumors were injected with escalating doses of AtzMab from 0.009 to 24 mg/kg body weight.

PD-L1 in MDAMB231 tumors [5] = target: T6, PD-L1 in MDAMB231 tumors; test: Effect of AtzMab dose on tumor PD-L1 occupancy, inhibitory sigmoidal Emax model of [64Cu]WL12 % ID/g; format: in vivo
Procedure: To evaluate the effect of dose on tumor PD-L1 occupancy at the tumor, mice bearing MDAMB231 tumors were injected with escalating doses of AtzMab from 0.009 to 24 mg/kg body weight. […] At the 0.6 and 3.2 mg/kg dose, there was a proportionate decrease in signal intensity in the tumors indicating—for the 3.2 mg/kg dose—a near 100% target engagement at the tumor by the antibody.
The accumulated radioactivity (% ID/g) in the tumors was then used to fit an inhibitory sigmoidal E. model.

[6] = target: T7, PD-L1 in HCC827, H226, hPD-L1 and MDAMB231 cells (Homo sapiens, UniProt Q9NZQ7); test: [64Cu]WL12 binding to PD-L1-positive cells in the presence of 60 nM mAbs; format: cell-based; details: 60 nM mAb vs PBS control
T7 construct: Each of which naturally expresses PD-L1; endogenous in cells; host or cells: HCC827, H226, MDAMB231 (endogenous) and CHO-hPD-L1 (stably transfected)
T7 sequence (Q9NZQ7 19-290): as above
Procedure: Non-interacting residues are shown in gray. […] Mean fluorescence intensities were determined by flow cytometry.
HCC827 and H226 non-small cell lung cancer (NSCLC) cells also were tested.

human PD-L1 = human PD-L1 (Homo sapiens, UniProt Q9NZQ7); details: read-out: dissociation constant (Kd), human PD-L1; cited from earlier work
Sequence of human PD-L1 (Q9NZQ7 19-290): as above

mouse PD-L1 = mouse PD-L1 (Mus musculus, UniProt Q9EP73); details: read-out: dissociation constant (Kd), mouse PD-L1; cited from earlier work
Sequence of mouse PD-L1 (Q9EP73 19-290): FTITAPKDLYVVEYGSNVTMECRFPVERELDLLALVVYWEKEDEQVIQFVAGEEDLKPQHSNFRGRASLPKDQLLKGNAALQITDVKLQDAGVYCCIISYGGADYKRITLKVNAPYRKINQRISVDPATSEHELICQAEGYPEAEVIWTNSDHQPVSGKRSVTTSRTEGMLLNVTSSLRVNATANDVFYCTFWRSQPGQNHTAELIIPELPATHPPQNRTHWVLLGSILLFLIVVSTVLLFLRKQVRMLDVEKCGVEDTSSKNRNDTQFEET

PD-L1 in MDAMB231 tumors [7] = target: T6, PD-L1 in MDAMB231 tumors; test: Tumor PD-L1 engagement by PD-L1 mAbs measured with [64Cu]WL12, MDAMB231 xenografts; format: in vivo; details: AtzMab 20 mg/kg, AveMab 10 mg/kg, DurMab 10 mg/kg, 24 h prior to tracer
[8] = Stroh, et al., 2017; cited from earlier work

**Q.** For “AtzMab: therapeutic PD-L1 antibody Atezolizumab”, which “potency at inhibiting [64Cu]WL12 binding” value (PD-L1 in hPD-L1 cells) is on record?
**A.** more potent than WL12

**Q.** What about the “reduction in [64Cu]WL12 % ID/g, H226 xenografts” value (PD-L1 in H226 xenografts) of the same substance?
**A.** 34%

**Q.** What about the “reduction in [64Cu]WL12 % ID/g, HCC827 xenografts” value [1] of the same substance?
**A.** 47%

**Q.** What about the “decrease of [64Cu]WL12 binding to doxycycline-treated A549-iPDL1 cells” value [2] of the same substance?
**A.** 65%

**Q.** And the “decrease of [64Cu]WL12 uptake in A549-iPDL1 tumors” value [3]?
**A.** > 75%

**Q.** And the “[64Cu]WL12 uptake compared to untreated controls, PET” value (PD-L1 in MDAMB231 tumors [4]; AtzMab 0.06 mg/kg)?
**A.** no difference

**Q.** And the “[64Cu]WL12 tumor uptake at 120 h compared to 24 h” value (PD-L1 in MDAMB231 tumors [4]; AtzMab 0.6 mg/kg)?
**A.** significant increase

**Q.** What about the “target engagement at the tumor” value (PD-L1 in MDAMB231 tumors [4]; AtzMab 3.2 mg/kg) of the same substance?
**A.** ~100%

**Q.** What about the “[64Cu]WL12 tumor uptake at 120 h compared to 24 h” value (PD-L1 in MDAMB231 tumors [4]; AtzMab 10 or 20 mg/kg) of the same substance?
**A.** no significant temporal difference

**Q.** What about the “PD-L1 occupancy at 24 and 120 h” value (PD-L1 in MDAMB231 tumors [4]; atezolizumab 1 mg/Kg) of the same substance?
**A.** increased accumulation of [^64Cu]WL12 can be seen at 120 h but not at 24 h

**Q.** What about the “PD-L1 occupancy at 24 and 120 h” value (PD-L1 in MDAMB231 tumors [4]; atezolizumab 10 mg/Kg) of the same substance?
**A.** complete blockade of PD-L1

**Q.** What about the “less uptake of [64Cu]WL12 in tumors vs saline controls” value (PD-L1 in MDAMB231 tumors [4]; mAb 24 h prior, 120 min after tracer injection, ex vivo) of the same substance?
**A.** approximately 60%

**Q.** And the ID90 (PD-L1 in MDAMB231 tumors [5]; 90% of Imax)?
**A.** 0.87 mg/kg

**Q.** And the ID96 (PD-L1 in MDAMB231 tumors [5]; 96% of Imax)?
**A.** 1.19 mg/kg

**Q.** What about the “ID50, dose for 50% of the maximum PD-L1 engagement in the tumor” value (PD-L1 in MDAMB231 tumors [5]; MDAMB231 tumors, 24 h after dose) of the same substance?
**A.** 0.43 mg/kg and 0.43 (10%) mg/kg

**Q.** What about the “expected average plasma concentration” value (PD-L1 in MDAMB231 tumors [5]; at ID50, assuming Vss 50 mL/kg) of the same substance?
**A.** 59 nM and 8.6 mcg/mL

**Q.** And the “expected average plasma concentration” value (PD-L1 in MDAMB231 tumors [5]; at ID90, assuming Vss 50 mL/kg)?
**A.** 120 nM and 17.4 mcg/mL

**Q.** And the “expected average plasma concentration” value (PD-L1 in MDAMB231 tumors [5]; at ID96, assuming Vss 50 mL/kg)?
**A.** 164 nM and 23.8 mcg/mL

**Q.** What about the Imax (PD-L1 in MDAMB231 tumors [5]; maximum fractional decrease in free PD-L1 ligands, mean (% RSE)) of the same substance?
**A.** 0.57 (3%)

**Q.** What about the Hill coefficient (PD-L1 in MDAMB231 tumors [5]; mean (% RSE)) of the same substance?
**A.** 3.12 (19%)

**Q.** And the Residual error (PD-L1 in MDAMB231 tumors [5]; mean (% RSE))?
**A.** 0.44 (14%) % ID/g

**Q.** What about the “Baseline free PD-L1 ligands” value (PD-L1 in MDAMB231 tumors [5]; mean parameter value (% relative standard error)) of the same substance?
**A.** 5.91 (1%) % ID/g

**Q.** What about the “[64Cu]WL12 accumulation in tumors vs antibody dose” value (PD-L1 in MDAMB231 tumors [5]; various doses, 24 h prior, biodistribution 2 h after tracer) of the same substance?
**A.** reduced with increasing antibody dose

**Q.** And the “[64Cu]WL12 binding to PD-L1-positive cells” value [6]?
**A.** inhibited

**Q.** What about the Kd (human PD-L1) of the same substance?
**A.** 430 pM

**Q.** What about the Kd (mouse PD-L1) of the same substance?
**A.** 130 pM

**Q.** What about the “[64Cu]WL12 uptake in MDAMB231 xenografts” value (PD-L1 in MDAMB231 tumors [7]) of the same substance?
**A.** significantly reduced

**Q.** And the linearity of pharmacokinetics [8]?
**A.** non-linear PK below 0.6-1 mg/kg and linear PK above 1 mg/kg dose
